In US20250243277A1 (AVACTA LIFE SCIENCES, published 2025):
Positions count from the first letter of the chain named.

B1: Clone 147 (designed binder)
chain: MIPGGLSEAKPATPEIQEIVDKVKPQLEEKTGETYGKLEAVQYKTQVVVHITVEWEGTNYYIKVRAGDNKYMHLKVFKSLIYQRHTQSREDLVLTGYQVDKNKDDELTGF
notes: His-tagged
B2: Clone 148 (designed binder)
chain: MIPGGLSEAKPATPEIQEIVDKVKPQLEEKTGETYGKLEAVQYKTQVVRDYDPFPYTGTNYYIKVRAGDNKYMHLKVFKSLWRGPGPYAIEDLVLTGYQVDKNKDDELTGF
notes: His-tagged
B3: Clone 153 (designed binder)
chain: MIPGGLSEAKPATPEIQEIVDKVKPQLEEKTGETYGKLEAVQYKTQVVYPWSWNGHYGTNYYIKVRAGDNKYMHLKVFKSLIKYPFARAEEDLVLTGYQVDKNKDDELTGF
notes: His-tagged
B4: Clone 223 (designed binder)
chain: MIPGGLSEAKPATPEIQEIVDKVKPQLEEKTGETYGKLEAVQYKTQVVFPWDQENYYGTNYYIKVRAGDNKYMHLKVFKSLIKEPFIKNVEDLVLTGYQVDKNKDDELTGF
notes: His-tagged
B5: Clone 165 (designed binder)
chain: MIPGGLSEAKPATPEIQEIVDKVKPQLEEKTGETYGKLEAVQYKTQVVNEAESSRFLGTNYYIKVRAGDNKYMHLKVFKSLHDFTLKWKFEDLVLTGYQVDKNKDDELTGF
notes: His-tagged
B6: Clone 160 (designed binder)
chain: MIPGGLSEAKPATPEIQEIVDKVKPQLEEKTGETYGKLEAVQYKTQVVGPWYFGSAWGTNYYIKVRAGDNKYMHLKVFKSLWENFHKLEKEDLVLTGYQVDKNKDDELTGF
notes: His-tagged
B7: Clone 151 (designed binder)
chain: MIPGGLSEAKPATPEIQEIVDKVKPQLEEKTGETYGKLEAVQYKTQVVWEEVNWRNWGTNYYIKVRAGDNKYMHLKVFKSLVPIHDHLRNEDLVLTGYQVDKNKDDELTGF
notes: His-tagged
B8: Clone 137 (designed binder)
chain: MIPGGLSEAKPATPEIQEIVDKVKPQLEEKTGETYGKLEAVQYKTQVVLWPLQPKNWGTNYYIKVRAGDNKYMHLKVFKSLGWNYLEAIAEDLVLTGYQVDKNKDDELTGF
notes: His-tagged
B9: Clone 155 (designed binder)
chain: MIPGGLSEAKPATPEIQEIVDKVKPQLEEKTGETYGKLEAVQYKTQVVWRTGQKWQVGTNYYIKVRAGDNKYMHLKVFKSLAGHYEVHIGEDLVLTGYQVDKNKDDELTGF
notes: His-tagged
B10: Clone 139 (designed binder)
chain: MIPGGLSEAKPATPEIQEIVDKVKPQLEEKTGETYGKLEAVQYKTQVVGLIQPPYAQGTNYYIKVRAGDNKYMHLKVFKSLGWQYIDLFHEDLVLTGYQVDKNKDDELTGF
notes: His-tagged
B11: Clone 156 (designed binder)
chain: MIPGGLSEAKPATPEIQEIVDKVKPQLEEKTGETYGKLEAVQYKTQVVIQQLYKQTWGTNYYIKVRAGDNKYMHLKVFKSLDYQHWPYDFEDLVLTGYQVDKNKDDELTGF
notes: His-tagged
B12: Clone 166 (designed binder)
chain: MIPGGLSEAKPATPEIQEIVDKVKPQLEEKTGETYGKLEAVQYKTQVVVAGLKWHWEGTNYYIKVRAGDNKYMHLKVFKSLIYASQYDYREDLVLTGYQVDKNKDDELTGF
notes: His-tagged
B13: Clone 135 (designed binder)
chain: MIPGGLSEAKPATPEIQEIVDKVKPQLEEKTGETYGKLEAVQYKTQVVAVYPTFKYGTNYYIKVRAGDNKYMHLKVFKSLKVEYLDFITEDLVLTGYQVDKNKDDELTGF
notes: His-tagged
B14: Clone 163 (designed binder)
chain: MIPGGLSEAKPATPEIQEIVDKVKPQLEEKTGETYGKLEAVQYKTQVVISASEIRWYGTNYYIKVRAGDNKYMHLKVFKSLKAFANDYYKEDLVLTGYQVDKNKDDELTGF
notes: His-tagged
B15: Clone 143 (designed binder)
chain: MIPGGLSEAKPATPEIQEIVDKVKPQLEEKTGETYGKLEAVQYKTQVVDWPSHAKFWGTNYYIKVRAGDNKYMHLKVFKSLFLPDKDDPFEDLVLTGYQVDKNKDDELTGF
notes: His-tagged
B16: Clone 157 (designed binder)
chain: MIPGGLSEAKPATPEIQEIVDKVKPQLEEKTGETYGKLEAVQYKTQVVIYYPIWDFHGTNYYIKVRAGDNKYMHLKVFKSLFWGDLKTEDLVLTGYQVDKNKDDELTGF
notes: His-tagged
B17: Clone 152 (designed binder)
chain: MIPGGLSEAKPATPEIQEIVDKVKPQLEEKTGETYGKLEAVQYKTQVVRAQLRPWVAGTNYYIKVRAGDNKYMHLKVFKSLGWNEEARPPEDLVLTGYQVDKNKDDELTGF
notes: His-tagged
B18: Clone 68 (designed binder)
chain: MIPGGLSEAKPATPEIQEIVDKVKPQLEEKTGETYGKLEAVQYKTQVVRVQGLWNFQGTNYYIKVRAGDNKYMHLKVFKSLGHHGDHEKWEDLVLTGYQVDKNKDDELTGF
notes: His-tagged
B19: Clone 164 (designed binder)
chain: B18 chain with V50I, Q51W, L53F, N55A, H84E, G85S, D86G, H87Q, E88N, K89L
notes: His-tagged
B20: Clone 159 (designed binder)
chain: MIPGGLSEAKPATPEIQEIVDKVKPQLEEKTGETYGKLEAVQYKTQVVHVHWAWNYLGTNYYIKVRAGDNKYMHLKVFKSLRNFYTFPHEEDLVLTGYQVDKNKDDELTGF
notes: His-tagged
B21: Clone 136 (designed binder)
chain: MIPGGLSEAKPATPEIQEIVDKVKPQLEEKTGETYGKLEAVQYKTQVVVLRWQWGYLGTNYYIKVRAGDNKYMHLKVFKSLQLLYEDNDEDLVLTGYQVDKNKDDELTGF
notes: His-tagged
B22: Clone 167 (designed binder)
chain: MIPGGLSEAKPATPEIQEIVDKVKPQLEEKTGETYGKLEAVQYKTQVVYRNKQWYNEGTNYYIKVRAGDNKYMHLKVFKSLKIGYLEFVLEDLVLTGYQVDKNKDDELTGF
notes: His-tagged
B23: Clone 176 (designed binder)
chain: MIPGGLSEAKPATPEIQEIVDKVKPQLEEKTGETYGKLEAVQYKTQVVFWYPEIGWLGTNYYIKVRAGDNKYMHLKVFKSLRSRYPNYTAEDLVLTGYQVDKNKDDELTGF
notes: His-tagged
B24: Clone 145 (designed binder)
chain: MIPGGLSEAKPATPEIQEIVDKVKPQLEEKTGETYGKLEAVQYKTQVVYKNVGPWVNGTNYYIKVRAGDNKYMHLKVFKSLYRTNRGHEREDLVLTGYQVDKNKDDELTGF
notes: His-tagged
B25: Clone 14 (designed binder)
chain: MIPGGLSEAKPATPEIQEIVDKVKPQLEEKTGETYGKLEAVQYKTQVVSFLVDPLHLGTNYYIKVRAGDNKYMHLKVFKSLRSFGGEWGWEDLVLTGYQVDKNKDDELTGF
notes: His-tagged
B26: Clone 158 (designed binder)
chain: MIPGGLSEAKPATPEIQEIVDKVKPQLEEKTGETYGKLEAVQYKTQVVDNVANIVPHGTNYYIKVRAGDNKYMHLKVFKSLGWNYEHKWPEDLVLTGYQVDKNKDDELTGF
notes: His-tagged
B27: Clone 141 (designed binder)
chain: MIPGGLSEAKPATPEIQEIVDKVKPQLEEKTGETYGKLEAVQYKTQVVDLHTLKSGVGTNYYIKVRAGDNKYMHLKVFKSLYIKHHLWWIEDLVLTGYQVDKNKDDELTGF
notes: His-tagged
B28: Clone 150 (designed binder)
chain: MIPGGLSEAKPATPEIQEIVDKVKPQLEEKTGETYGKLEAVQYKTQVVREVGLWRFQGTNYYIKVRAGDNKYMHLKVFKSLYIGYAGDAQEDLVLTGYQVDKNKDDELTGF
notes: His-tagged
B29: Clone 142 (designed binder)
chain: MIPGGLSEAKPATPEIQEIVDKVKPQLEEKTGETYGKLEAVQYKTQVVSWYKLWSYSGTNYYIKVRAGDNKYMHLKVFKSLFEGRHKDPEEDLVLTGYQVDKNKDDELTGF
notes: His-tagged
B30: Clone 146 (designed binder)
chain: MIPGGLSEAKPATPEIQEIVDKVKPQLEEKTGETYGKLEAVQYKTQVVSKRSAWHWTGTNYYIKVRAGDNKYMHLKVFKSLFWNAPDDRQEDLVLTGYQVDKNKDDELTGF
notes: His-tagged
B31: Clone 144 (designed binder)
chain: MIPGGLSEAKPATPEIQEIVDKVKPQLEEKTGETYGKLEAVQYKTQVVAYQSPPYHFGTNYYIKVRAGDNKYMHLKVFKSLRQIAGYIAIEDLVLTGYQVDKNKDDELTGF
notes: His-tagged
B32: Clone 138 (designed binder)
chain: MIPGGLSEAKPATPEIQEIVDKVKPQLEEKTGETYGKLEAVQYKTQVVDNVRHGWLSGTNYYIKVRAGDNKYMHLKVFKSLFALLWSAYGEDLVLTGYQVDKNKDDELTGF
notes: His-tagged
B33: Clone 140 (designed binder)
chain: MIPGGLSEAKPATPEIQEIVDKVKPQLEEKTGETYGKLEAVQYKTQVVRQVGVWAYEGTNYYIKVRAGDNKYMHLKVFKSLGRTVEGGRWEDLVLTGYQVDKNKDDELTGF
notes: His-tagged
B34: Clone 174 (designed binder)
chain: B33 chain with G52T, V53I, A55H, Y56F, V85E, E86V, G87E, R89S, W90F
notes: His-tagged

target: T1, human PD-L1-Fc (R&D Systems) (human, UniProt Q9NZQ7 19-239); assay: soluble Affimer ELISA
T1 construct: Bought from R&D Systems; Biotinylated in-house for the phage selection; also called huPD-L1-Fc; human PD-L1-Fc antigen; not shown: Fc part of the bought fusion
T1 sequence (Q9NZQ7 19-239 limits assumed): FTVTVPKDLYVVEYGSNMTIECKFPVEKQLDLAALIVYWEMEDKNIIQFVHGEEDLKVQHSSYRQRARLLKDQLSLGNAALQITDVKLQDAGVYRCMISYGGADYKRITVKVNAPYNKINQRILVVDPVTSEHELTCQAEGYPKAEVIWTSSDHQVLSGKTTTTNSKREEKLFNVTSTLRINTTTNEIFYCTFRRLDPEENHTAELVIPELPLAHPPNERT

Binding result, binds:
B1
B2
B3
B4
B5
B6
B7
B8
B9
B10
B11
B12
B13
B14
B15
B16
B17
B18
B19
B20
B21
B22
B23
B24
B25
B26
B27
B28
B29
B30
B31
B32
B33
B34
